Results on 21 molecules are retold here after US20210388087A1 (Chugai, published 2021).

First the molecules themselves.
B1: CE115HA000/GLS3000 G89F (antibody, IgG1, name in Kabat numbering, V domains shown)
VH: QVQLVESGGGVVQPGRSLRLSCAASGFTFSNAWMHWVRQAPGKGLEWVAQIKAKSNNYATYYAESVKGRFTISRDDSKNSLYLQMNSLKTEDTAVYYCRYVHYGAYYGVDAWGQGTTVTVSS
VL: DIVMTQSPLSLPVTPGEPASISCRSSQSLVHSNRNTYLHWYQQKPGQAPRLLIYKVSNRFSGVPDRFSGSGSGTDFTLKISRVEAEDVGVYYCFQGTQVPYTFGQGTKLEIK
notes: one-arm IgG1
B2: CE115HA000/GLS3000 G91T (antibody, IgG1, name in Kabat numbering, V domains shown)
VH: QVQLVESGGGVVQPGRSLRLSCAASGFTFSNAWMHWVRQAPGKGLEWVAQIKAKSNNYATYYAESVKGRFTISRDDSKNSLYLQMNSLKTEDTAVYYCRYVHYGAYYGVDAWGQGTTVTVSS
VL: DIVMTQSPLSLPVTPGEPASISCRSSQSLVHSNRNTYLHWYQQKPGQAPRLLIYKVSNRFSGVPDRFSGSGSGTDFTLKISRVEAEDVGVYYCGQTTQVPYTFGQGTKLEIK
notes: one-arm IgG1
B3: CE115HA000/GLS3000 G89L (antibody, IgG1, name in Kabat numbering, V domains shown)
VH: QVQLVESGGGVVQPGRSLRLSCAASGFTFSNAWMHWVRQAPGKGLEWVAQIKAKSNNYATYYAESVKGRFTISRDDSKNSLYLQMNSLKTEDTAVYYCRYVHYGAYYGVDAWGQGTTVTVSS
VL: DIVMTQSPLSLPVTPGEPASISCRSSQSLVHSNRNTYLHWYQQKPGQAPRLLIYKVSNRFSGVPDRFSGSGSGTDFTLKISRVEAEDVGVYYCLQGTQVPYTFGQGTKLEIK
notes: one-arm IgG1
B4: CE115HA000/GLS3000 G89W (antibody, IgG1, name in Kabat numbering, V domains shown)
VH: QVQLVESGGGVVQPGRSLRLSCAASGFTFSNAWMHWVRQAPGKGLEWVAQIKAKSNNYATYYAESVKGRFTISRDDSKNSLYLQMNSLKTEDTAVYYCRYVHYGAYYGVDAWGQGTTVTVSS
VL: DIVMTQSPLSLPVTPGEPASISCRSSQSLVHSNRNTYLHWYQQKPGQAPRLLIYKVSNRFSGVPDRFSGSGSGTDFTLKISRVEAEDVGVYYCWQGTQVPYTFGQGTKLEIK
notes: one-arm IgG1
B5: CE115HA000/GLS3000 G89V (antibody, IgG1, name in Kabat numbering, V domains shown)
VH: QVQLVESGGGVVQPGRSLRLSCAASGFTFSNAWMHWVRQAPGKGLEWVAQIKAKSNNYATYYAESVKGRFTISRDDSKNSLYLQMNSLKTEDTAVYYCRYVHYGAYYGVDAWGQGTTVTVSS
VL: DIVMTQSPLSLPVTPGEPASISCRSSQSLVHSNRNTYLHWYQQKPGQAPRLLIYKVSNRFSGVPDRFSGSGSGTDFTLKISRVEAEDVGVYYCVQGTQVPYTFGQGTKLEIK
notes: one-arm IgG1
B6: CE115HA000/GLS3000 G89N (antibody, IgG1, name in Kabat numbering, V domains shown)
VH: QVQLVESGGGVVQPGRSLRLSCAASGFTFSNAWMHWVRQAPGKGLEWVAQIKAKSNNYATYYAESVKGRFTISRDDSKNSLYLQMNSLKTEDTAVYYCRYVHYGAYYGVDAWGQGTTVTVSS
VL: DIVMTQSPLSLPVTPGEPASISCRSSQSLVHSNRNTYLHWYQQKPGQAPRLLIYKVSNRFSGVPDRFSGSGSGTDFTLKISRVEAEDVGVYYCNQGTQVPYTFGQGTKLEIK
notes: one-arm IgG1
B7: CE115HA000/GLS3000 G89I (antibody, IgG1, name in Kabat numbering, V domains shown)
VH: QVQLVESGGGVVQPGRSLRLSCAASGFTFSNAWMHWVRQAPGKGLEWVAQIKAKSNNYATYYAESVKGRFTISRDDSKNSLYLQMNSLKTEDTAVYYCRYVHYGAYYGVDAWGQGTTVTVSS
VL: DIVMTQSPLSLPVTPGEPASISCRSSQSLVHSNRNTYLHWYQQKPGQAPRLLIYKVSNRFSGVPDRFSGSGSGTDFTLKISRVEAEDVGVYYCIQGTQVPYTFGQGTKLEIK
notes: one-arm IgG1
B8: CE115HA000/GLS3000 G89Q (antibody, IgG1, name in Kabat numbering, V domains shown)
VH: QVQLVESGGGVVQPGRSLRLSCAASGFTFSNAWMHWVRQAPGKGLEWVAQIKAKSNNYATYYAESVKGRFTISRDDSKNSLYLQMNSLKTEDTAVYYCRYVHYGAYYGVDAWGQGTTVTVSS
VL: DIVMTQSPLSLPVTPGEPASISCRSSQSLVHSNRNTYLHWYQQKPGQAPRLLIYKVSNRFSGVPDRFSGSGSGTDFTLKISRVEAEDVGVYYCQQGTQVPYTFGQGTKLEIK
notes: one-arm IgG1
B9: CE115HA000/GLS3000 G89H (antibody, IgG1, name in Kabat numbering, V domains shown)
VH: QVQLVESGGGVVQPGRSLRLSCAASGFTFSNAWMHWVRQAPGKGLEWVAQIKAKSNNYATYYAESVKGRFTISRDDSKNSLYLQMNSLKTEDTAVYYCRYVHYGAYYGVDAWGQGTTVTVSS
VL: DIVMTQSPLSLPVTPGEPASISCRSSQSLVHSNRNTYLHWYQQKPGQAPRLLIYKVSNRFSGVPDRFSGSGSGTDFTLKISRVEAEDVGVYYCHQGTQVPYTFGQGTKLEIK
notes: one-arm IgG1
B10: CE115HA000/GLS3000 G89Y (antibody, IgG1, name in Kabat numbering, V domains shown)
VH: QVQLVESGGGVVQPGRSLRLSCAASGFTFSNAWMHWVRQAPGKGLEWVAQIKAKSNNYATYYAESVKGRFTISRDDSKNSLYLQMNSLKTEDTAVYYCRYVHYGAYYGVDAWGQGTTVTVSS
VL: DIVMTQSPLSLPVTPGEPASISCRSSQSLVHSNRNTYLHWYQQKPGQAPRLLIYKVSNRFSGVPDRFSGSGSGTDFTLKISRVEAEDVGVYYCYQGTQVPYTFGQGTKLEIK
notes: one-arm IgG1
B11: CE115HA000/GLS3000 G89R (antibody, IgG1, name in Kabat numbering, V domains shown)
VH: QVQLVESGGGVVQPGRSLRLSCAASGFTFSNAWMHWVRQAPGKGLEWVAQIKAKSNNYATYYAESVKGRFTISRDDSKNSLYLQMNSLKTEDTAVYYCRYVHYGAYYGVDAWGQGTTVTVSS
VL: DIVMTQSPLSLPVTPGEPASISCRSSQSLVHSNRNTYLHWYQQKPGQAPRLLIYKVSNRFSGVPDRFSGSGSGTDFTLKISRVEAEDVGVYYCRQGTQVPYTFGQGTKLEIK
notes: one-arm IgG1
B12: CE115HA000/GLS3000 G89T (antibody, IgG1, name in Kabat numbering, V domains shown)
VH: QVQLVESGGGVVQPGRSLRLSCAASGFTFSNAWMHWVRQAPGKGLEWVAQIKAKSNNYATYYAESVKGRFTISRDDSKNSLYLQMNSLKTEDTAVYYCRYVHYGAYYGVDAWGQGTTVTVSS
VL: DIVMTQSPLSLPVTPGEPASISCRSSQSLVHSNRNTYLHWYQQKPGQAPRLLIYKVSNRFSGVPDRFSGSGSGTDFTLKISRVEAEDVGVYYCTQGTQVPYTFGQGTKLEIK
notes: one-arm IgG1
B13: CE115HA000/GLS3000 G91P (antibody, IgG1, name in Kabat numbering, V domains shown)
VH: QVQLVESGGGVVQPGRSLRLSCAASGFTFSNAWMHWVRQAPGKGLEWVAQIKAKSNNYATYYAESVKGRFTISRDDSKNSLYLQMNSLKTEDTAVYYCRYVHYGAYYGVDAWGQGTTVTVSS
VL: DIVMTQSPLSLPVTPGEPASISCRSSQSLVHSNRNTYLHWYQQKPGQAPRLLIYKVSNRFSGVPDRFSGSGSGTDFTLKISRVEAEDVGVYYCGQPTQVPYTFGQGTKLEIK
notes: one-arm IgG1
B14: CE115HA000/GLS3000 G91E (antibody, IgG1, name in Kabat numbering, V domains shown)
VH: QVQLVESGGGVVQPGRSLRLSCAASGFTFSNAWMHWVRQAPGKGLEWVAQIKAKSNNYATYYAESVKGRFTISRDDSKNSLYLQMNSLKTEDTAVYYCRYVHYGAYYGVDAWGQGTTVTVSS
VL: DIVMTQSPLSLPVTPGEPASISCRSSQSLVHSNRNTYLHWYQQKPGQAPRLLIYKVSNRFSGVPDRFSGSGSGTDFTLKISRVEAEDVGVYYCGQETQVPYTFGQGTKLEIK
notes: one-arm IgG1
B15: CE115HA000/GLS3000 H27dA (antibody, IgG1, name in Kabat numbering, V domains shown)
VH: QVQLVESGGGVVQPGRSLRLSCAASGFTFSNAWMHWVRQAPGKGLEWVAQIKAKSNNYATYYAESVKGRFTISRDDSKNSLYLQMNSLKTEDTAVYYCRYVHYGAYYGVDAWGQGTTVTVSS
VL: DIVMTQSPLSLPVTPGEPASISCRSSQSLVASNRNTYLHWYQQKPGQAPRLLIYKVSNRFSGVPDRFSGSGSGTDFTLKISRVEAEDVGVYYCGQGTQVPYTFGQGTKLEIK
notes: one-arm IgG1
B16: CE115HA000/GLS3000 G91Y (antibody, IgG1, name in Kabat numbering, V domains shown)
VH: QVQLVESGGGVVQPGRSLRLSCAASGFTFSNAWMHWVRQAPGKGLEWVAQIKAKSNNYATYYAESVKGRFTISRDDSKNSLYLQMNSLKTEDTAVYYCRYVHYGAYYGVDAWGQGTTVTVSS
VL: DIVMTQSPLSLPVTPGEPASISCRSSQSLVHSNRNTYLHWYQQKPGQAPRLLIYKVSNRFSGVPDRFSGSGSGTDFTLKISRVEAEDVGVYYCGQYTQVPYTFGQGTKLEIK
notes: one-arm IgG1
B17: CE115HA000/GLS3000 G89P (antibody, IgG1, name in Kabat numbering, V domains shown)
VH: QVQLVESGGGVVQPGRSLRLSCAASGFTFSNAWMHWVRQAPGKGLEWVAQIKAKSNNYATYYAESVKGRFTISRDDSKNSLYLQMNSLKTEDTAVYYCRYVHYGAYYGVDAWGQGTTVTVSS
VL: DIVMTQSPLSLPVTPGEPASISCRSSQSLVHSNRNTYLHWYQQKPGQAPRLLIYKVSNRFSGVPDRFSGSGSGTDFTLKISRVEAEDVGVYYCPQGTQVPYTFGQGTKLEIK
notes: one-arm IgG1
B18: CE115HA000/GLS3000 G91A (antibody, IgG1, name in Kabat numbering, V domains shown)
VH: QVQLVESGGGVVQPGRSLRLSCAASGFTFSNAWMHWVRQAPGKGLEWVAQIKAKSNNYATYYAESVKGRFTISRDDSKNSLYLQMNSLKTEDTAVYYCRYVHYGAYYGVDAWGQGTTVTVSS
VL: DIVMTQSPLSLPVTPGEPASISCRSSQSLVHSNRNTYLHWYQQKPGQAPRLLIYKVSNRFSGVPDRFSGSGSGTDFTLKISRVEAEDVGVYYCGQATQVPYTFGQGTKLEIK
notes: one-arm IgG1
B19: CE115HA000/GLS3000 G89K (antibody, IgG1, name in Kabat numbering, V domains shown)
VH: QVQLVESGGGVVQPGRSLRLSCAASGFTFSNAWMHWVRQAPGKGLEWVAQIKAKSNNYATYYAESVKGRFTISRDDSKNSLYLQMNSLKTEDTAVYYCRYVHYGAYYGVDAWGQGTTVTVSS
VL: DIVMTQSPLSLPVTPGEPASISCRSSQSLVHSNRNTYLHWYQQKPGQAPRLLIYKVSNRFSGVPDRFSGSGSGTDFTLKISRVEAEDVGVYYCKQGTQVPYTFGQGTKLEIK
notes: one-arm IgG1
B20: CE115HA000/GLS3000 G91D (antibody, IgG1, name in Kabat numbering, V domains shown)
VH: QVQLVESGGGVVQPGRSLRLSCAASGFTFSNAWMHWVRQAPGKGLEWVAQIKAKSNNYATYYAESVKGRFTISRDDSKNSLYLQMNSLKTEDTAVYYCRYVHYGAYYGVDAWGQGTTVTVSS
VL: DIVMTQSPLSLPVTPGEPASISCRSSQSLVHSNRNTYLHWYQQKPGQAPRLLIYKVSNRFSGVPDRFSGSGSGTDFTLKISRVEAEDVGVYYCGQDTQVPYTFGQGTKLEIK
notes: one-arm IgG1
B21: CE115HA000/GLS3000 G89M (antibody, IgG1, name in Kabat numbering, V domains shown)
VH: QVQLVESGGGVVQPGRSLRLSCAASGFTFSNAWMHWVRQAPGKGLEWVAQIKAKSNNYATYYAESVKGRFTISRDDSKNSLYLQMNSLKTEDTAVYYCRYVHYGAYYGVDAWGQGTTVTVSS
VL: DIVMTQSPLSLPVTPGEPASISCRSSQSLVHSNRNTYLHWYQQKPGQAPRLLIYKVSNRFSGVPDRFSGSGSGTDFTLKISRVEAEDVGVYYCMQGTQVPYTFGQGTKLEIK
notes: one-arm IgG1

The target in this assay is T1, CD3 epsilon homodimer protein (UniProt P07766 23-126).
T1 construct: also called CD3 (CD3 epsilon)
T1 sequence (P07766 23-126): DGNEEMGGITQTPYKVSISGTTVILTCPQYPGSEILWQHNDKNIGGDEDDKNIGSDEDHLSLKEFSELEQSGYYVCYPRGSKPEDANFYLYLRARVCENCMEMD
In words: SPR, antibody over immobilised CD3e homodimer.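 Also: SPR at 25 °C with CD3 epsilon homodimer amine-coupled to a CM4 sensor chip and antibody flowed over as analyte in HBS-EP+ running buffer.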 For orientation: In SPR one partner is held on a chip, and binding of the other changes the refractive index at the surface.
With B1, the “KD ratio to GLS3000” value is 3.34.

As to B2, the “KD ratio to GLS3000” value stood at 39.9.

With B3, the “KD ratio to GLS3000” value was 2.38.

In the case of B4, the “KD ratio to GLS3000” value was 2.2.

Consider B5, for which the “KD ratio to GLS3000” value worked out at 1.4.

As to B6, the “KD ratio to GLS3000” value worked out at 1.2.

B7: the “KD ratio to GLS3000” value came to 1.11.

On to B8, for which the “KD ratio to GLS3000” value came out at 2.11.

Take B9: the “KD ratio to GLS3000” value is 1.44.

Turning to B10, the “KD ratio to GLS3000” value is 1.12.

B11: the “KD ratio to GLS3000” value was determined as 4130.

For B12, the “KD ratio to GLS3000” value stood at 1.1.

Consider B13, for which the “KD ratio to GLS3000” value amounted to 23.1.

Turning to B14, the “KD ratio to GLS3000” value is 48.5.

In the case of B15, the “KD ratio to GLS3000” value is 2.57.

With B16, the “KD ratio to GLS3000” value came out at 33.8.

Turning to B17, the “KD ratio to GLS3000” value worked out at 1.8.

With B18, the “KD ratio to GLS3000” value is 28.1.

Take B19: the “KD ratio to GLS3000” value amounted to 1.8.

Consider B20, for which the “KD ratio to GLS3000” value was 44.8.

As to B21, the “KD ratio to GLS3000” value was determined as 1.96.
